Data on 125 sequences can be found in the supplement of paper PMC9112550, “Optimization of the antimicrobial peptide Bac7 by deep mutational scanning” (BMC Biology, 2022).

In the data set the test system is Escherichia coli TOP10. Nature of the data set: shrunken log2 fold change of peptide-encoding DNA abundance (4.5 h post-induction vs induction); higher = less antimicrobial activity (less host growth inhibition). The conditions noted are these: time post-induction: 4.5 h; library: site-saturation at positions 5, 18, 19, 20.
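Also: peptides expressed intracellularly from a pBAD plasmid library in pooled LB shake-flask culture, induced with 0.3% L-arabinose, DNA abundance read by NGS, three biological replicates, DESeq2 with apeglm shrinkage.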

As for RRIRLRPPRLPRPRPRPVIKPRP, the “shrunken log2 fold change” value was -0.111.

Turning to RRIRPRPPRLPRPRPRPTVDPRP, the “shrunken log2 fold change” value is 0.0336.

On to RRIRNRPPRLPRPRPRPINIPRP, for which the “shrunken log2 fold change” value worked out at 0.00587.

Regarding RRIRSRPPRLPRPRPRPVETPRP, the “shrunken log2 fold change” value is 0.00492.

Turning to RRIRFRPPRLPRPRPRPQLSPRP, the “shrunken log2 fold change” value is -0.0854.

Consider RRIRGRPPRLPRPRPRPNTAPRP, for which the “shrunken log2 fold change” value stood at 0.543.

Consider RRIRIRPPRLPRPRPRPMTMPRP, for which the “shrunken log2 fold change” value was -0.01.

As to RRIRDRPPRLPRPRPRPIGTPRP, the “shrunken log2 fold change” value came out at 0.208.

With RRIRGRPPRLPRPRPRPMLYPRP, the “shrunken log2 fold change” value came out at 0.322.

Turning to RRIRQRPPRLPRPRPRPGHKPRP, the “shrunken log2 fold change” value is -0.00306.

Take RRIRKRPPRLPRPRPRPMFPPRP: the “shrunken log2 fold change” value is -0.187.

In the case of RRIRIRPPRLPRPRPRPCDAPRP, the “shrunken log2 fold change” value was -0.27.

For RRIRIRPPRLPRPRPRPNAMPRP, the “shrunken log2 fold change” value was -0.0812.

On to RRIRDRPPRLPRPRPRPLHMPRP, for which the “shrunken log2 fold change” value is -0.0438.

Consider RRIRKRPPRLPRPRPRPIFIPRP, for which the “shrunken log2 fold change” value is -0.173.

For the sequence RRIRQRPPRLPRPRPRPMIYPRP, the “shrunken log2 fold change” value is -0.0652.

As to RRIRRRPPRLPRPRPRPIINPRP, the “shrunken log2 fold change” value is -0.207.

Consider RRIRCRPPRLPRPRPRPDCPPRP, for which the “shrunken log2 fold change” value is -0.343.

Take RRIRCRPPRLPRPRPRPRFGPRP: the “shrunken log2 fold change” value came out at 0.316.

As for RRIRTRPPRLPRPRPRPLSVPRP, the “shrunken log2 fold change” value is -0.0398.

RRIRGRPPRLPRPRPRPFDIPRP: the “shrunken log2 fold change” value came out at 0.198.

For the sequence RRIRQRPPRLPRPRPRPSNGPRP, the “shrunken log2 fold change” value is -0.687.

RRIRGRPPRLPRPRPRPPHCPRP: the “shrunken log2 fold change” value was 0.902.

As to RRIRCRPPRLPRPRPRPFQRPRP, the “shrunken log2 fold change” value was -0.418.

For the sequence RRIRTRPPRLPRPRPRPKWFPRP, the “shrunken log2 fold change” value is -0.0479.

In the case of RRIRERPPRLPRPRPRPATAPRP, the “shrunken log2 fold change” value worked out at 0.147.

In the case of RRIRPRPPRLPRPRPRPKCVPRP, the “shrunken log2 fold change” value was determined as 0.0688.

Consider RRIRWRPPRLPRPRPRPTMHPRP, for which the “shrunken log2 fold change” value stood at 0.454.

Regarding RRIRCRPPRLPRPRPRPGRTPRP, the “shrunken log2 fold change” value was -0.106.

In the case of RRIRKRPPRLPRPRPRPKGTPRP, the “shrunken log2 fold change” value stood at 0.00171.

RRIRRRPPRLPRPRPRPVLIPRP: the “shrunken log2 fold change” value was 0.177.

On to RRIRERPPRLPRPRPRPPINPRP, for which the “shrunken log2 fold change” value was -0.224.

In the case of RRIRLRPPRLPRPRPRPAFEPRP, the “shrunken log2 fold change” value came out at 0.36.

As to RRIRGRPPRLPRPRPRPVTCPRP, the “shrunken log2 fold change” value is 0.146.

Take RRIRIRPPRLPRPRPRPPCYPRP: the “shrunken log2 fold change” value was -0.154.

For RRIRNRPPRLPRPRPRPTLLPRP, the “shrunken log2 fold change” value was -0.168.

Regarding RRIRIRPPRLPRPRPRPYGHPRP, the “shrunken log2 fold change” value came out at 0.0184.

With RRIRHRPPRLPRPRPRPCINPRP, the “shrunken log2 fold change” value is -0.306.

For the sequence RRIRKRPPRLPRPRPRPHLGPRP, the “shrunken log2 fold change” value was -0.00957.

As to RRIRKRPPRLPRPRPRPYNGPRP, the “shrunken log2 fold change” value was -0.00151.

As for RRIRPRPPRLPRPRPRPQCVPRP, the “shrunken log2 fold change” value worked out at 0.14.

As for RRIRKRPPRLPRPRPRPEGCPRP, the “shrunken log2 fold change” value came out at 0.959.

As for RRIRVRPPRLPRPRPRPPRIPRP, the “shrunken log2 fold change” value is 0.116.

In the case of RRIRLRPPRLPRPRPRPVWLPRP, the “shrunken log2 fold change” value came out at 0.242.

For the sequence RRIRWRPPRLPRPRPRPTFNPRP, the “shrunken log2 fold change” value is 0.00157.

In the case of RRIRTRPPRLPRPRPRPTNCPRP, the “shrunken log2 fold change” value worked out at 0.216.

For the sequence RRIRFRPPRLPRPRPRPQTGPRP, the “shrunken log2 fold change” value is -0.152.

Consider RRIRSRPPRLPRPRPRPIYSPRP, for which the “shrunken log2 fold change” value is 0.101.

Turning to RRIRGRPPRLPRPRPRPLKTPRP, the “shrunken log2 fold change” value came out at 0.58.

Regarding RRIRDRPPRLPRPRPRPANPPRP, the “shrunken log2 fold change” value was determined as 0.234.

With RRIRARPPRLPRPRPRPQCTPRP, the “shrunken log2 fold change” value was -0.0222.

Turning to RRIRFRPPRLPRPRPRPQYPPRP, the “shrunken log2 fold change” value turned out to be 0.041.

In the case of RRIRFRPPRLPRPRPRPYFLPRP, the “shrunken log2 fold change” value is -0.628.

For the sequence RRIRKRPPRLPRPRPRPNKSPRP, the “shrunken log2 fold change” value amounted to 0.0234.

For RRIRMRPPRLPRPRPRPIGFPRP, the “shrunken log2 fold change” value was -0.01.

Consider RRIRARPPRLPRPRPRPKNFPRP, for which the “shrunken log2 fold change” value worked out at 0.251.

As to RRIRMRPPRLPRPRPRPPRCPRP, the “shrunken log2 fold change” value worked out at 1.38.

On to RRIRDRPPRLPRPRPRPLSEPRP, for which the “shrunken log2 fold change” value stood at 0.111.

For the sequence RRIRCRPPRLPRPRPRPAKTPRP, the “shrunken log2 fold change” value is -0.0664.

Turning to RRIRFRPPRLPRPRPRPMMSPRP, the “shrunken log2 fold change” value is -0.0228.

Consider RRIRGRPPRLPRPRPRPLKNPRP, for which the “shrunken log2 fold change” value worked out at 0.459.

For the sequence RRIRTRPPRLPRPRPRPMGEPRP, the “shrunken log2 fold change” value was -0.0305.

For the sequence RRIRCRPPRLPRPRPRPWHSPRP, the “shrunken log2 fold change” value is 0.112.

Take RRIRARPPRLPRPRPRPKLMPRP: the “shrunken log2 fold change” value turned out to be 0.357.

Take RRIRGRPPRLPRPRPRPDWHPRP: the “shrunken log2 fold change” value came to 0.238.

Regarding RRIRLRPPRLPRPRPRPHIIPRP, the “shrunken log2 fold change” value turned out to be 0.0077.

On to RRIRTRPPRLPRPRPRPPMYPRP, for which the “shrunken log2 fold change” value was -0.406.

For RRIRDRPPRLPRPRPRPRTQPRP, the “shrunken log2 fold change” value was found to be 0.168.

For RRIRQRPPRLPRPRPRPTQMPRP, the “shrunken log2 fold change” value came out at 0.0693.

Turning to RRIRERPPRLPRPRPRPFKCPRP, the “shrunken log2 fold change” value was -0.457.

With RRIRCRPPRLPRPRPRPCYVPRP, the “shrunken log2 fold change” value was -1.08.

Consider RRIRLRPPRLPRPRPRPKTEPRP, for which the “shrunken log2 fold change” value came out at 0.14.

Take RRIRMRPPRLPRPRPRPMTPPRP: the “shrunken log2 fold change” value amounted to 0.582.

Consider RRIRKRPPRLPRPRPRPYKYPRP, for which the “shrunken log2 fold change” value was -0.00882.

As to RRIRDRPPRLPRPRPRPKALPRP, the “shrunken log2 fold change” value was -0.00674.

For the sequence RRIRDRPPRLPRPRPRPLSSPRP, the “shrunken log2 fold change” value was determined as 0.184.

On to RRIRHRPPRLPRPRPRPCNDPRP, for which the “shrunken log2 fold change” value is -0.283.

Regarding RRIRPRPPRLPRPRPRPAYCPRP, the “shrunken log2 fold change” value is -0.215.

With RRIRSRPPRLPRPRPRPTEIPRP, the “shrunken log2 fold change” value is -0.0163.

For the sequence RRIRERPPRLPRPRPRPYAHPRP, the “shrunken log2 fold change” value was -0.0128.

For the sequence RRIRHRPPRLPRPRPRPRWLPRP, the “shrunken log2 fold change” value is 0.144.

Turning to RRIRMRPPRLPRPRPRPGTSPRP, the “shrunken log2 fold change” value was determined as 0.24.

With RRIRMRPPRLPRPRPRPGIIPRP, the “shrunken log2 fold change” value is -0.0597.

In the case of RRIRMRPPRLPRPRPRPWFEPRP, the “shrunken log2 fold change” value is -0.13.

In the case of RRIRQRPPRLPRPRPRPVMRPRP, the “shrunken log2 fold change” value came to 0.444.

Turning to RRIRLRPPRLPRPRPRPEQKPRP, the “shrunken log2 fold change” value amounted to 0.0115.

Turning to RRIRMRPPRLPRPRPRPLLVPRP, the “shrunken log2 fold change” value is 0.199.

Consider RRIRMRPPRLPRPRPRPWRIPRP, for which the “shrunken log2 fold change” value is -0.0845.

With RRIRVRPPRLPRPRPRPEQRPRP, the “shrunken log2 fold change” value was determined as 0.0562.

On to RRIRLRPPRLPRPRPRPYVEPRP, for which the “shrunken log2 fold change” value is -0.322.

Turning to RRIRARPPRLPRPRPRPHMKPRP, the “shrunken log2 fold change” value was -0.188.

For the sequence RRIRLRPPRLPRPRPRPIYKPRP, the “shrunken log2 fold change” value was -0.489.

As for RRIRFRPPRLPRPRPRPALSPRP, the “shrunken log2 fold change” value is 0.319.

As for RRIRKRPPRLPRPRPRPMRVPRP, the “shrunken log2 fold change” value came to 0.848.

On to RRIRTRPPRLPRPRPRPPEYPRP, for which the “shrunken log2 fold change” value was found to be 0.0238.

With RRIRCRPPRLPRPRPRPGTVPRP, the “shrunken log2 fold change” value is -0.339.

As for RRIRLRPPRLPRPRPRPKESPRP, the “shrunken log2 fold change” value is 0.0595.

With RRIRYRPPRLPRPRPRPTQPPRP, the “shrunken log2 fold change” value is 0.409.

For the sequence RRIRHRPPRLPRPRPRPSDQPRP, the “shrunken log2 fold change” value is 0.0718.

For RRIRPRPPRLPRPRPRPQHLPRP, the “shrunken log2 fold change” value is -0.172.

For the sequence RRIRLRPPRLPRPRPRPCYSPRP, the “shrunken log2 fold change” value was -0.142.

Consider RRIRCRPPRLPRPRPRPKHGPRP, for which the “shrunken log2 fold change” value is -0.116.

On to RRIRLRPPRLPRPRPRPVMSPRP, for which the “shrunken log2 fold change” value was -0.152.

For RRIRRRPPRLPRPRPRPLSRPRP, the “shrunken log2 fold change” value turned out to be 0.0601.

As for RRIRARPPRLPRPRPRPHDAPRP, the “shrunken log2 fold change” value was determined as 0.122.

As to RRIRTRPPRLPRPRPRPQAQPRP, the “shrunken log2 fold change” value came out at 0.017.

In the case of RRIRPRPPRLPRPRPRPHFWPRP, the “shrunken log2 fold change” value was determined as 0.482.

Regarding RRIRNRPPRLPRPRPRPWFNPRP, the “shrunken log2 fold change” value was -0.448.

RRIRSRPPRLPRPRPRPLFFPRP: the “shrunken log2 fold change” value is -0.172.

For the sequence RRIRCRPPRLPRPRPRPMWFPRP, the “shrunken log2 fold change” value was -0.254.

For the sequence RRIRFRPPRLPRPRPRPFRYPRP, the “shrunken log2 fold change” value is -0.151.

In the case of RRIRNRPPRLPRPRPRPLLHPRP, the “shrunken log2 fold change” value was -0.135.

For the sequence RRIRPRPPRLPRPRPRPTFCPRP, the “shrunken log2 fold change” value worked out at 0.0727.

Turning to RRIRFRPPRLPRPRPRPNQNPRP, the “shrunken log2 fold change” value was -0.443.

Take RRIRLRPPRLPRPRPRPKIRPRP: the “shrunken log2 fold change” value was -0.128.

For the sequence RRIRLRPPRLPRPRPRPEQCPRP, the “shrunken log2 fold change” value is -0.0243.

Consider RRIRWRPPRLPRPRPRPRKRPRP, for which the “shrunken log2 fold change” value amounted to 0.726.

With RRIRERPPRLPRPRPRPSVVPRP, the “shrunken log2 fold change” value is -0.213.

As to RRIRSRPPRLPRPRPRPCGHPRP, the “shrunken log2 fold change” value stood at 0.0213.

In the case of RRIRERPPRLPRPRPRPTRWPRP, the “shrunken log2 fold change” value came to 0.353.

On to RRIRTRPPRLPRPRPRPNTHPRP, for which the “shrunken log2 fold change” value is -0.451.

As for RRIRWRPPRLPRPRPRPGHHPRP, the “shrunken log2 fold change” value turned out to be 0.0195.

With RRIRARPPRLPRPRPRPMVRPRP, the “shrunken log2 fold change” value is 0.348.

With RRIRKRPPRLPRPRPRPAKQPRP, the “shrunken log2 fold change” value stood at 0.0123.

For RRIRSRPPRLPRPRPRPPPLPRP, the “shrunken log2 fold change” value came to 0.739.
